In patent US20240252592A1 (TIANJIN INSTITUTE OF PHARMACEUTICAL RESEARCH, published 2024):
Numbered stars: 1 amine (or outer) side, 2 acyl side, 3 side chain; on linkers, the order of the positions; unused ones are H or OH. Square brackets hold non-standard residues; d marks the D form. Side chains are listed from the residue outwards. Ends that are not written are not given here. * marks the point of attachment. OC17H32COOH = fatty diacid acyl group -OC17H32COOH on the linker; C20 diacid = O=C(O)CCCCCCCCCCCCCCCCCCC(=O)*; C18 diacid = O=C(O)CCCCCCCCCCCCCCCCC(=O)*; γGlu = O=C(O)[C@H](CCC(=O)[*:2])N[*:1]; Palmitoyl = CCCCCCCCCCCCCCCC(=O)*; AEEA = NCCOCCOCC(=O)O; Aib = CC(C)(N)C(=O)O

B1: Compound 79 (peptide)
peptide: HXQGTFTSDKSKYLXERAAKEFIXWLEAGGPSSG
modifications: not fully specified; Lys 10 side chain -Ado-Ado-γE-OC17H32COOH; C-terminal amide

What follows are binders tested against GC receptor (assay: cell-based or functional assay).

| Binder | EC50 of GC receptor mediated cAMP production [nM] |
| --- | --- |
| H[Aib]QGTFTSDYSKYLDERKAK([AEEA-AEEA-γGlu-OC17H32COOH])EFIEWLEGGPSSG-NH2 (not fully specified; printed as HAibQGTFTSDYSKYLDERKAK**EFIEWLEGGPSSG-Amid) [Compound 66] | 0.058 |
| H[Aib]QGTFTSDYSKYLDERKAK([AEEA-AEEA-γGlu-C18 diacid])EFVEWLEAGGPSSG-NH2 (not fully specified; printed as HAibQGTFTSDYSKYLDERKAK**EFVEWLEAGGPSSG-Amid) [Compound 42] | 0.024 |
| H[Aib]QGTFTSDYSKYLEEKRAK([AEEA-AEEA-γGlu-C18 diacid])EFVAWLEGGPSSG-NH2 (not fully specified; printed as HAibQGTFTSDYSKYLEEKRAK**EFVAWLEGGPSSG-Amid) [Compound 74] | 0.725 |
| HSQGTFTSDYSKYLDERAAK([AEEA-AEEA-γGlu-C18 diacid])EFIAWLEGGPSSG-NH2 (not fully specified; printed as HSQGTFTSDYSKYLDERAAK**EFIAWLEGGPSSG-Amid) [Compound 38] | 0.102 |
| H[Aib]QGTFTSDYSKYLEERKAK([γGlu-γGlu-Palmitoyl])EFVEWLEGGPSSG-NH2 (not fully specified; printed as HAibQGTFTSDYSKYLEERKAK*EFVEWLEGGPSSG-Amid) [Compound 62] | 0.156 |
| H[Aib]QGTFTSDYSKYLEERKAK([AEEA-AEEA-γGlu-C20 diacid])EFIAWLEGGPSSG-NH2 (not fully specified; printed as HAibQGTFTSDYSKYLEERKAK***EFIAWLEGGPSSG-Amid) [Compound 68] | 0.314 |
| H[Aib]QGTFTSDYSKYLDEKRAK([γGlu-γGlu-Palmitoyl])EFIAWLEAGGPSSG-NH2 (not fully specified; printed as HAibQGTFTSDYSKYLDEKRAK*EFIAWLEAGGPSSG-Amid) [Compound 57] | 0.081 |
| H[Aib]QGTFTSDYSKYLEEKRAK([γGlu-γGlu-Palmitoyl])EFVEWLEGGPSSG-NH2 (not fully specified; printed as HAibQGTFTSDYSKYLEEKRAK*EFVEWLEGGPSSG-Amid) [Compound 76] | 0.191 |
| H[Aib]QGTFTSDYSKYLEEKRAK([AEEA-AEEA-γGlu-C18 diacid])EFVAWLEAGGPSSG-NH2 (not fully specified; printed as HAibQGTFTSDYSKYLEEKRAK**EFVAWLEAGGPSSG-Amid) [Compound 53] | 0.316 |
| H[Aib]QGTFTSDYSKYLEERKAK([AEEA-AEEA-γGlu-C18 diacid])EFIAWLEAGGPSSG-NH2 (not fully specified; printed as HAibQGTFTSDYSKYLEERKAK**EFIAWLEAGGPSSG-Amid) [Compound 44] | 0.219 |
| B1 | 0.025 |
| H[Aib]QGTFTSDYSKYLDERKAK([γGlu-γGlu-Palmitoyl])EFVEWLEGGPSSG-NH2 (not fully specified; printed as HAibQGTFTSDYSKYLDERKAK*EFVEWLEGGPSSG-Amid) [Compound 69] | 0.261 |
| H[Aib]QGTFTSDYSKYLEEKRAK([AEEA-AEEA-γGlu-C18 diacid])EFVEWLEAGGPSSG-NH2 (not fully specified; printed as HAibQGTFTSDYSKYLEEKRAK**EFVEWLEAGGPSSG-Amid) [Compound 54] | 0.274 |
| H[Aib]QGTFTSDYSKYLDEKRAK([AEEA-AEEA-γGlu-C18 diacid])EFIAWLEAGGPSSG-NH2 (not fully specified; printed as HAibQGTFTSDYSKYLDEKRAK**EFIAWLEAGGPSSG-Amid) [Compound 50] | 0.048 |

Each binder was assayed against human GLP-1 receptor (human, UniProt P43220 24-463) (assay: cell-based or functional assay).

| Binder | EC50 of GLP-1 receptor mediated cAMP production [nM] |
| --- | --- |
| H[Aib]QGTFTSDYSKYLDERKAK([AEEA-AEEA-γGlu-OC17H32COOH])EFIEWLEGGPSSG-NH2 (not fully specified; printed as HAibQGTFTSDYSKYLDERKAK**EFIEWLEGGPSSG-Amid) [Compound 66] | 0.051 |
| H[Aib]QGTFTSDYSKYLDERKAK([AEEA-AEEA-γGlu-C18 diacid])EFVEWLEAGGPSSG-NH2 (not fully specified; printed as HAibQGTFTSDYSKYLDERKAK**EFVEWLEAGGPSSG-Amid) [Compound 42] | 0.52 |
| H[Aib]QGTFTSDYSKYLEEKRAK([AEEA-AEEA-γGlu-C18 diacid])EFVAWLEGGPSSG-NH2 (not fully specified; printed as HAibQGTFTSDYSKYLEEKRAK**EFVAWLEGGPSSG-Amid) [Compound 74] | 0.842 |
| HSQGTFTSDYSKYLDERAAK([AEEA-AEEA-γGlu-C18 diacid])EFIAWLEGGPSSG-NH2 (not fully specified; printed as HSQGTFTSDYSKYLDERAAK**EFIAWLEGGPSSG-Amid) [Compound 38] | 0.716 |
| H[Aib]QGTFTSDYSKYLEERKAK([γGlu-γGlu-Palmitoyl])EFVEWLEGGPSSG-NH2 (not fully specified; printed as HAibQGTFTSDYSKYLEERKAK*EFVEWLEGGPSSG-Amid) [Compound 62] | 0.313 |
| H[Aib]QGTFTSDYSKYLEERKAK([AEEA-AEEA-γGlu-C20 diacid])EFIAWLEGGPSSG-NH2 (not fully specified; printed as HAibQGTFTSDYSKYLEERKAK***EFIAWLEGGPSSG-Amid) [Compound 68] | 0.13 |
| H[Aib]QGTFTSDYSKYLDEKRAK([γGlu-γGlu-Palmitoyl])EFIAWLEAGGPSSG-NH2 (not fully specified; printed as HAibQGTFTSDYSKYLDEKRAK*EFIAWLEAGGPSSG-Amid) [Compound 57] | 0.094 |
| H[Aib]QGTFTSDYSKYLEEKRAK([γGlu-γGlu-Palmitoyl])EFVEWLEGGPSSG-NH2 (not fully specified; printed as HAibQGTFTSDYSKYLEEKRAK*EFVEWLEGGPSSG-Amid) [Compound 76] | 0.22 |
| H[Aib]QGTFTSDYSKYLEEKRAK([AEEA-AEEA-γGlu-C18 diacid])EFVAWLEAGGPSSG-NH2 (not fully specified; printed as HAibQGTFTSDYSKYLEEKRAK**EFVAWLEAGGPSSG-Amid) [Compound 53] | 0.532 |
| H[Aib]QGTFTSDYSKYLEERKAK([AEEA-AEEA-γGlu-C18 diacid])EFIAWLEAGGPSSG-NH2 (not fully specified; printed as HAibQGTFTSDYSKYLEERKAK**EFIAWLEAGGPSSG-Amid) [Compound 44] | 0.371 |
| B1 | 0.033 |
| H[Aib]QGTFTSDYSKYLDERKAK([γGlu-γGlu-Palmitoyl])EFVEWLEGGPSSG-NH2 (not fully specified; printed as HAibQGTFTSDYSKYLDERKAK*EFVEWLEGGPSSG-Amid) [Compound 69] | 0.778 |
| H[Aib]QGTFTSDYSKYLEEKRAK([AEEA-AEEA-γGlu-C18 diacid])EFVEWLEAGGPSSG-NH2 (not fully specified; printed as HAibQGTFTSDYSKYLEEKRAK**EFVEWLEAGGPSSG-Amid) [Compound 54] | 0.219 |
| H[Aib]QGTFTSDYSKYLDEKRAK([AEEA-AEEA-γGlu-C18 diacid])EFIAWLEAGGPSSG-NH2 (not fully specified; printed as HAibQGTFTSDYSKYLDEKRAK**EFIAWLEAGGPSSG-Amid) [Compound 50] | 0.119 |
